Data on 1 substance can be found in patent US20170088624A1.

This experiment addresses Full length human CD40 (huCD40) on cells (human) (UniProt P25942). The experiment in a line: cell-based or functional assay.

Full length human CD40 (huCD40) on cells (human), sequence (P25942 21-277): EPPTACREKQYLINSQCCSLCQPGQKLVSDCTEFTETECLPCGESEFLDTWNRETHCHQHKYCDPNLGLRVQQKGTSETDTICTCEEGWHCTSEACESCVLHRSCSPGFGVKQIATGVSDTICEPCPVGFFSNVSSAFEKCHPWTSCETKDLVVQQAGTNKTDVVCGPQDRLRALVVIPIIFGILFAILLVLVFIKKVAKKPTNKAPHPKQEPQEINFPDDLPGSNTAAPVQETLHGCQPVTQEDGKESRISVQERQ
CP-870,893 (antibody), sequence (VH): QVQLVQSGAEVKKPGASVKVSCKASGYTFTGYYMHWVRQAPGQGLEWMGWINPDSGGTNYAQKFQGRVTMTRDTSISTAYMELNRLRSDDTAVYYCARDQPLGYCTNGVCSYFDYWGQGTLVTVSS
CP-870,893 (antibody), sequence (VL): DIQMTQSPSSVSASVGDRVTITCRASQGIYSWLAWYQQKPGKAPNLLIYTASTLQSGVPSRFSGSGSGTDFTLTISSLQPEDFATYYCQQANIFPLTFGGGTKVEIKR

As for CP-870,893 (antibody), the B cells EC50, CD23 surface expression, no cross-linker was found to be 3.17 ng/mL; the B cells EC50, CD80 surface expression, no cross-linker came out at 7.34 ng/mL; the B cells EC50, CD83 surface expression, no cross-linker worked out at 4.28 ng/mL; the B cells EC50, CD86 surface expression, no cross-linker is 4.04 ng/mL. In addition, the B cells EC50, HLA-DR surface expression, no cross-linker turned out to be 8.15 ng/mL; the DC EC50, CD80 surface expression, no cross-linker was found to be 44.7 ng/mL; the DC EC50, CD83 surface expression, no cross-linker worked out at 245 ng/mL; the DC EC50, CD86 surface expression, no cross-linker worked out at 133 ng/mL. Further, the DC EC50, HLA-DR surface expression, no cross-linker amounted to 242 ng/mL.
